Assay results as given in US11673947B2, “Target tissue-specific antigen-binding molecule” (Chugai Seiyaku Kabushiki Kaisha, priority 2012, dated 2023).

Key:
[1] = Competitive phage ELISA, inhibition of binding to biotin-labeled antigens by ATP; details: ATP from an equal amount up to 10000 times that of the antigen
Procedure: ATNLSA1-4_D12 and PF1 were each diluted with TBS and subjected to ELISA by the following procedure.
A StreptaWell 96 microtiter plate (Roche) was coated at room temperature for one hour with 100 μl of TBS containing biotin-labeled antigens (a mixture of 5′-adenosine-PEG-biotin and ATP-PEG-biotin). After the antigens were removed by washing each well of the plate with TBST, the wells were blocked with 250 μl of 2% skim milk/TBS for one hour or more. 2% skim milk/TBS was removed, and then the prepared, purified phages were added to each well. The plate was allowed to stand at room temperature for one hour to allow binding of the antibody-displaying phages to the antigens in each well. […] For the competition of the immobilized antigen with ATP, the plate was allowed to stand at room temperature for one hour. Then, after TBST wash, an HRP-conjugated anti-M13 antibody (Amersham Pharmacia Biotech) diluted with TBS was added to each well. The plate was incubated for one hour. Following TBST wash, the TMB single solution (ZYMED) was added to each well. The chromogenic reaction in the solution of each well was terminated by adding sulfuric acid. Then, the developed color was assessed by measuring absorbance at 450 nm.

[2] = Phage ELISA, binding to 2′-adenosine-PEG-biotin, 5′-adenosine-PEG-biotin and ATP-PEG-biotin
Procedure: From single colonies of E. coli obtained by panning as described in the Example above, culture supernatants containing phages were collected according to a conventional method (Method Mol. Biol. (2002) 178, 133-145). The collected culture supernatants were treated by ultrafiltration using NucleoFast 96 (MACHERY-NAGEL). 100 μl of the culture supernatants were added to each well of NucleoFast 96 and centrifuged at 4500 g for 45 minutes to remove flow through. After addition of 100 μl of H2O, the NucleoFast 96 was washed by centrifugation at 4500 g for 30 minutes. After addition of 100 μl of TBS, the NucleoFast 96 was allowed to stand for five minutes at room temperature. Then, phage suspensions were collected from the supernatants.
Purified phages, to which TBS was added, were subjected to ELISA by the following procedure. […] Then, the developed color was assessed by measuring absorbance at 450 nm.
Next, for the purpose of confirming to which antigen of 2′-adenosine-PEG-biotin, 5′-adenosine-PEG-biotin, and ATP-PEG-biotin these clones have binding ability, the purified phages diluted with TBS were subjected to ELISA by the following procedure. […] Then, the developed color was assessed by measuring absorbance at 450 nm.

[3] = Biacore T200, binding of D12 to ADP; details: 50 mM Tris-HCl, 500 mM NaCl, 0.01% Tween20, 15° C.
Text: (§1) Biacore T200 (GE Healthcare) was used to analyze the interaction of D12, in which the constant region of IgG is linked to the variable region of clone ATNLSA1-4_D12 with ATP- and adenosine-binding activity, in antigen-antibody reaction. Sensor chip CM5 or CM4 (GE Healthcare) was immobilized with an appropriate amount of protein A (Life technologies) by amine coupling. The antibody of interest was captured by the chip to allow interaction with ATP (Wako), adenosine (Wako), or ADP (adenosine diphosphate) (Wako) as an antigen. The running buffer used was 50 mM Tris-HCl (Takara, T903), 500 mM NaCl, 0.01% (w/v) Tween20. The antigen was allowed to interact for 30 seconds at a flow rate of 30 μl/min, and was dissociated for 30 seconds. The interaction with the antigen was assessed at 15° C. The antigen was diluted using the same running buffer.
(§2) The dissociation constant KD (M) was calculated based on the association rate constant ka (1/Ms) and dissociation rate constant kd (1/s), both of which are kinetic parameters calculated from the sensorgram obtained by the measurement. Alternatively, the dissociation constant KD (M) was calculated using steady state analysis. Each parameter was calculated using the Biacore T200 Evaluation Software (GE Healthcare).

[4] = Tm measurement by DSC; format: physicochemical
Procedure: Then, for the purpose of improving antibody stability, the framework sequence of ATNLSA1-4_D12 was restored to the germ line sequence VH3-21 by introducing into the framework sequence of ATNLSA1-4_D12, alterations Gln01Glu, Gln05Val, Asp10Gly, Asn30Ser, Leu48Val, and Asn58Tyr (numerals represent Kabat numbers). ATNLSA1-4_D12 variants expressed and purified by the method described in Example 7-1 were measured for their Tm by DSC. DSC measurement was carried out by a method known to those skilled in the art.

[5] = Biacore T200, binding of D12 and variants to adenosine (steady state, Formula 2); details: 15° C., specific response with/without 20 μmol/l ADP
Text: as §1, §2
In addition, the binding response was separately assessed in the presence of 20 μmol/l ADP. […]

[6] = Biacore T200, binding of D12 and ATNLSA1-4_D12 variants to ATP; details: 50 mM Tris-HCl, 500 mM NaCl, 0.01% Tween20, 15° C.
Text: as §1, with “The antigen was allowed to interact for 30 seconds at a flow rate of 30 μl/min, and was dissociated for 30 seconds.” left out, “The antigen was diluted using the same running buffer.” left out
as §2
Each variant expressed and purified by the method described in Example 7-1 was assayed for its ATP and adenosine binding by the same method as described in Example 7-6 using Biacore. Based on the assay result, the affinity of each variant for ATP was calculated as a KD value. […]

[7] = system: CHO/hIL6R (CHO cells expressing human IL-6 receptor); test: ADCC (chrome release) with NK92-CD16(V) as effector cells against CHO/hIL6R cells; format: cell-based; details: in the presence of ATP, various antibody concentrations; variants with increased effector activity
Procedure: The obtained antibodies 6RAD2C1-4_030 and 6RAD2C1-4_011 were assessed by the method described below to test whether ADCC activity against hIL-6R-expressing cells is mediated via hIL-6R binding of the antibodies in the presence of adenosine triphosphate (ATP). […] At various antibody concentrations in the presence or absence of ATP, 6RAD2C1-4_030, 6RAD2C1-4_011, and MRA were assessed for the ADCC activity to hIL-6R-expressing cells according to the method described in Reference Example 3.
Antibodies that bind to antigens in an ATP-dependent manner were assessed for their ADCC activity against antigen-expressing cells at various antibody concentrations according to the method described below. […]
ADCC activity was assessed based on the specific chrome release rate determined by chrome release assay. […] 100 μl of culture supernatant from each well of the plate was measured for radioactivity using a gamma counter. The specific chrome release rate was determined based on the equation described in Reference Example 1.

B1: ATNLSA1-4_D12: ATP/adenosine-binding antibody from human antibody library; variable regions SEQ ID NOs: 46 and 47 (antibody, listed as Homo sapiens, V domains shown)
VH: QVQLQESGGDLVKPGGSLRLSCAASGFTFNTYTMNWVRQAPGKGLEWLSSISSRSNYINYADSVKGRFTISRDNAKNSLYLQMNSLRAEDTAVYYCARFGRKGDLNWVFDYWGQGTLVTVSS
VL: QSALTQPPSASGSPGQSVTISCTGTSSDVGGYNYVSWYQQHPGKAPKLMIYEVSKRPSGVPDRFSGSKSGNTASLTVSGLQAEDEADYFCSSYAGSNNVVFGGGTKLTVL
**Q.** With B1 as the molecule, how does the “binding to antigen in the presence of ATP” value [1] read?
**A.** inhibited in an ATP concentration-dependent manner

**Q.** And the “binding to biotin-labeled antigens (phage ELISA)” value [2]?
**A.** had the ability to bind to both 5′-Adenosine-PEG-biotin and ATP-PEG-biotin

**Q.** What about the Kd [3] of the same molecule?
**A.** 250 nM

**Q.** And the Tm [4]?
**A.** 74.37 °C

**Q.** And the Kd [5]?
**A.** 1.1 mM

**Q.** And the Kd [6]?
**A.** 8.5 µM

B2: 6RAD2C1-4_030: antibody that binds to hIL-6R in the presence of ATP; variable regions SEQ ID NOs: 119 and 120 (antibody, listed as Homo sapiens, V domains shown)
VH: EVQLVESGGDLVKPGGGLRLSCAASGFTFSSYTMNWVRQAPGKGLEWVSSISSRSGYAYYADSVKGRFTISRDNAKNSLYLQMNSLRAEDTAVYYCARFGALNTLNWVFDYWGQGTLVTVSS
VL: QSALTQPPSASGSPGQTVTISCTGTSTDVGDYNYVSWYQQHPGKAPKLMIYQVSKKPSGVPDRFSGSKSGNTASLTVSGLQAEDEADYFCSTRTANAGVLFGGGTKLTVL
**Q.** Which “ADCC activity against hIL-6R-expressing cells” value [7] does the source give for B2 here?
**A.** antibody concentration-dependent ADCC activity

B3: 6RAD2C1-4_011: antibody that binds to hIL-6R in the presence of ATP; variable regions SEQ ID NOs: 82 and 83 (antibody, listed as Homo sapiens, V domains shown)
VH: EVQLVESGGDLVKPGGGLRLSCAASGFTFSGHTMNWVRQAPGKGLEWVSSISSRSSYIYYADSVKGRFTISRDNAKNSLYLQMNSLRAEDTAVYYCARYGALGQMNWVFDYWGQGTLVTVSS
VL: QSALTQPPSASGSPGQTVTISCTGTSTDVGDYNYVSWYQQHPGKAPKLMIYSVSKRPSGVPDRFSGSKSGNTASLTVSGLQAEDEADYFCSSRSSSMNVLFGGGTKLTVL
**Q.** With B3 as the molecule, how does the “ADCC activity against hIL-6R-expressing cells” value [7] read?
**A.** antibody concentration-dependent ADCC activity
